In PMC5080701, “TIS7 induces transcriptional cascade of methylosome components required for muscle differentiation”:

T1: GST-TIS7 (TPA Induced Sequence 7) (mouse, UniProt P19182 1-449)
T1 sequence: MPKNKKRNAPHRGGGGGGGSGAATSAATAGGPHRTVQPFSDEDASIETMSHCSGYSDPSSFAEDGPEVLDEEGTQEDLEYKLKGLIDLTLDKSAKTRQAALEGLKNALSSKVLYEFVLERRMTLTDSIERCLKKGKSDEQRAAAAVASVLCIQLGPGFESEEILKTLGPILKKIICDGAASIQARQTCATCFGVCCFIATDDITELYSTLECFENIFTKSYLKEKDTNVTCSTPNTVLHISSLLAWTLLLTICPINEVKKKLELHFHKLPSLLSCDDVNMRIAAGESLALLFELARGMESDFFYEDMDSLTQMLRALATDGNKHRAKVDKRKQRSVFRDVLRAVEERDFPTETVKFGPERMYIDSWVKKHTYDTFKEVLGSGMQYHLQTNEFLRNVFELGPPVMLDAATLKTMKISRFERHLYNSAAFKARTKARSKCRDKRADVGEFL


What was measured:
[1] = biological target: T1, GST-TIS7 (TPA Induced Sequence 7); assay: EMSA; blocked by 20-fold excess of unlabelled oligonucleotide; supershifted by TIS7 antibody; EMSA: 1 ug probe, 10 min, 5% native PAGE (50 mM Tris pH 7.5, 0.38 M glycine, 2 mM EDTA; run in TBE), binding buffer not stated; SPR: Biacore X100, SA chip, oligos annealed in 30 mM Na3PO4, 200 mM NaCl, 1 mM DTT pH 7.2, protein dialyzed in 50 mM Tris pH 7.4, 150 mM NaCl; running buffer and temperature not stated; conditions: protein: recombinant; tags: N-terminal GST; blunt
[2] = biological target: T1, GST-TIS7 (TPA Induced Sequence 7); assay: SPR; Kd value printed only in Fig. 4d; 10-fold difference in Kd between native and scrambled sequence; EMSA: 1 ug probe, 10 min, 5% native PAGE (50 mM Tris pH 7.5, 0.38 M glycine, 2 mM EDTA; run in TBE), binding buffer not stated; SPR: Biacore X100, SA chip, oligos annealed in 30 mM Na3PO4, 200 mM NaCl, 1 mM DTT pH 7.2, protein dialyzed in 50 mM Tris pH 7.4, 150 mM NaCl; running buffer and temperature not stated; conditions: protein: recombinant; tags: N-terminal GST; label: 5'-biotin on sense strand; blunt

Binder	binding result [1]	binding result [2]
ICln promoter minimal essential region (-154/-113), EMSA probe (dsDNA) DNA 1: TAGAATGTCTCATCTCTATGGTCGACGGCGTTCAGATTCCG DNA 2: CGGAATCTGAACGCCGTCGACCATAGAGATGAGACATTCTA	binds	
ICln promoter minimal essential region (-154/-113), SPR (dsDNA) DNA 1: TAGAATGTCTCATCTCTATGGTCGACGGCGTTCAGATTCCG DNA 2: CGGAATCTGAACGCCGTCGACCATAGAGATGAGACATTCTA		binds
